Source: the supplement of paper PMC9170038

Test system: K4 kissing-loop RNA reporter
Test: apparent KD of K4 kissing-loop reporter; higher = weaker reporter binding
Conditions: Eterna round: R107
Method: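 RNA-MaP round R107: designed RNA switches with theophylline, tryptophan, arginine or FMN aptamers are transcribed on-chip within common flanks. They are titrated with a labelled K4 kissing-loop RNA reporter in RNA-MaP buffer (100 mM Tris pH 7.5, 80 mM KCl, 4 mM MgCl2), without ligand or with the indicated ligand. Median apparent KD per design.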

[1] = input ligand: theophylline 20 uM
[2] = input ligand: tryptophan 2.4 mM
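Also: bound reporter read as fluorescence of individual clusters on recovered sequencing chips by microscopy, with normalized cluster intensities fitted with a binding model.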

Sequence	apparent KD of K4 kissing-loop reporter (input ligand: FMN 200 uM) [nM]	apparent KD of K4 kissing-loop reporter (input ligand: arginine 13.2 mM) [nM]	apparent KD of K4 kissing-loop reporter (input ligand: none) [nM]	apparent KD of K4 kissing-loop reporter [1] [nM]	apparent KD of K4 kissing-loop reporter [2] [nM]
UGCGCUGUGUACUGAAAUGUUAUGCGGGAUACCAGAGUCUUUUUAUUCCCUUGGCAGCUUGAGUGAUGUUUGAUGCCGUUCUUGU [po,,mmullin]	490	256	548	577	418
UCCUGCAAUCGGCCACGAAAGUGGAUGGAUACCAGAGUCGAAAGACUCCCUUGGCAGCCAGUGAUGUUGGAAGCAGGUAAAUAAA	838	499	470	538	505
UUACGAGUGAUGUUCGAAUAAAUCCAUUCAGAGGAUAUAGUAUUAACUAGAAGGCUGAAACCAACUUCGAGUCAUGUUCGAGGAU [Same State FMN A GF 2]	271	324	277	514	269
UGAUACCAGACGGCCGCCACUCCUGCAAGUCAAAGACUUGCUAAGGAAAUCGUCCAGUGAUGUUGGAGGACCGGGUCUGGUAUCU [TrypBX 17 #SwitchBubble #Palindromic #StaticStem]	931	670	830	717	899
AGUGCCUGCCUUAGCCUUCCCAUCAACUUCCGAGGACCGGUACGGCCGCCACUCGGCCAUCGGGCUAGUGAUGUUACCUGGUGGA [theeternabot_sameState_KL_Trp_A_50]	337	302	327	320	224
AUUCGAUCAGUGAUGUUGAUCAAAGUCGAAGGAGCGGACGAAAGUCCAGGUAGGUCGCGACUACAAGGUGUUAAGACACCUCGAA [Spvincent t9 mod #OpenEnded]	246	211	237	208	224
AGGAUCCGUCGACAAAAGUCGACAUAAACCAAGGAUAUGACGAAAGUCAGAAGGUGGUCAUAAGGCCAGUGAUGUUGGUGGAUCC [FmnA 12 #SwitchBubble #K4Late]	927	431	576	796	349
UUAUUAAUAACAGAUACCAGUCCAGAAUGAAAACUAUAGUGAUGUUAUAAUAAAGGGAAGGACCCUUGGCAGCUGUAAUAUAUUU [AstrosSSTheB#2]	525	427	497	452	394
UUUGUAUAGGGAAGGAGCGUGAAUGAUAAUGAAUAUAGUGAUGUUAUAUAGAAGAAAGAAUCACAGGUAGGUCGCCCGGAGGAGG [SSArgB.I]	198	234	1000	456	247
CUAAUCGCUCAUGAUACCAGCUAGUGAUGUUAGCCCGUCAAGCUGAGGGUUCAUCCACCCAGCCCUUGGCAGCAUUCUCGGUCAG [theeternabot_exclusion_KL_Theo_B_8]	441	313	387	449	364
GUAUCGCUAGGAGGAUAUUUCAAUCUGACUCUUUGAGUUAGUACGGAGUGAUGUUCCGAUUUACGGAAAGAAGGCCUAGUGAUAC [FMN B 11]	142	312	378	264	299
UGUGAACAAAAGUAGAGUGGACCACUAUAGCGAGGACCGGUACGGCCGCCACUCGUGUAUGAAUUCAGUGAUGUUGAAAAGAGCU [whbob_EX_Tryp_A_t11]	131	187	138	254	134
CCUCACGUAGGACUAGUGAUGUUAGACUACCGAGGACCGGUACGGCCGCCACUCGUCGUACAAGAUAACCUUCCGCCAGUAUACG	110	85.1	98.9	88.4	140
UCUGGAGUAUAUGAUACCAGCAGUGAGAGACAGGAAGUAUAGUGAUGUUAUAUGAGAGAAUGCCCUUGGCAGCGUGUGCGGUGGG [SSTheophylB.R]	94.3	85	71.1	106	62.7
UGUCAUUGGUCGGCCGCCACUUCAAAAGGUCAAAGACCAGAGUGAUGUUCUUCACGAAACGUGAGAAGGACCGGGACCGAUGACU [TrypBS 12 #SwitchBubble #K4Middle]	226	123	191	266	638
CCGAUGGGUACAGGAUAUGCCAGUGAUGUUGGUUUAGAUGGACCCAUAAGGAGACACCAGACGGAGGCAGAAGGGUAGCAAGGGA [Isonanti]	127	110	101	118	120
